Data published in patent publication US20020081574.
Like-named read-outs stand apart in the source and are kept apart here.

Tests used:
[1] = target: HCV NS3 full length (bacNS3-5B derived) (Hepatitis C virus strain H) (UniProt P27958); conditions: Km for RNA substrate; helicase strand displacement, PIPES pH 6.5, MnCl2, 37 C
[2] = target: HCV NS3 full length (bacNS3 derived) (Hepatitis C virus strain H) (UniProt P27958)
[3] = target: HCV NS3 full length (bacNS3-5B derived) (Hepatitis C virus strain H) (UniProt P27958)

HCV NS3 full length (bacNS3-5B derived) (Hepatitis C virus strain H), sequence (P27958 1027-1657): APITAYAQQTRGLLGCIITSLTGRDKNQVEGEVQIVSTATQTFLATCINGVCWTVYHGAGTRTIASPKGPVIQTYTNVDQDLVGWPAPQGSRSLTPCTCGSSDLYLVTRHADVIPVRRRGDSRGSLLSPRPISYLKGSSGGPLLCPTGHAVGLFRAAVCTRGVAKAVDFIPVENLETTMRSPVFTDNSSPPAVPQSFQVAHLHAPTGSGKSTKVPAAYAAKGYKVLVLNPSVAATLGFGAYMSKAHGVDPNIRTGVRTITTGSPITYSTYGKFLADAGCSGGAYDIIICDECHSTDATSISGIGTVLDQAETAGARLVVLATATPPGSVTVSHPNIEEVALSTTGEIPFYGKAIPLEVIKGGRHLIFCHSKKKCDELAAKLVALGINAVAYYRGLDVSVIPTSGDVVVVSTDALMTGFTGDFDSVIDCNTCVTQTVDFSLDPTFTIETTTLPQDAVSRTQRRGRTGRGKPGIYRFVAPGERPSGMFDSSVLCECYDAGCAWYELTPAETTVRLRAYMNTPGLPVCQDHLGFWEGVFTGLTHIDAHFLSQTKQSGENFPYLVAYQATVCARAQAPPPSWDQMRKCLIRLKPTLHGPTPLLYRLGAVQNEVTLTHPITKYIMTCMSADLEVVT
HCV NS3 full length (bacNS3 derived) (Hepatitis C virus strain H), sequence (P27958 1027-1657): as above

Row | Substance | activity [1] [nM] | activity ([2]; helicase catalytic rate) [min⁻¹] | activity ([3]; helicase catalytic rate) [min⁻¹] | activity ([2]; ATPase rate with poly(U), 0 without) [min⁻¹] | activity ([3]; ATPase rate with poly(U), 23 without) [min⁻¹]
1 | standard RNA helicase substrate (3' and 5' single strand regions) | 0.5 | 0.003 | 0.01 | – | –
2 | poly(U) | – | – | – | 659 | 1050
